Test results from US20240092908A1 (ZHEJIANG DOER BIOLOGICS, published 2024).
Changes are numbered by the printed parent chain.

Tests used:
[1] = molecular target: fusion protein hPD1-Fc composed of the PD-1 extracellular domain sequence and human IgG1 FC (human); experiment: competitive phage ELISA on coated hPD1-Fc; competitor Bio-hPDL1-HSA
Method: After washing 3 times with PBST, 100 μl of Streptavidin-HRP diluted 1:50000 (Jackson ImmunoResearch Inc) was added to each well and incubated at 37° C. for 1 hour. After washing 3 times with PBS, TMB color development working solution (Beijing ComWin Biotech Co., Ltd.) was added and incubated at room temperature for 5 minutes to develop color, then 1M sulfuric acid was added to terminate the reaction and OD450 nm reading was recorded. […] Competitive positive clones were selected for sequencing and duplicate sequences were removed.

[2] = molecular target: T1, fusion protein hPD1-HSA composed of a PD1 extracellular domain sequence and a human serum albumin sequence (human); experiment: ELISA, hPD1-HSA coated 200 ng/well, VHH 1 µg/mL, anti-his detection
T1 construct: PD-1 extracellular domain fused to HSA; also called Human hPD1-HSA; human PD-1
Method: (§1) Human hPD1-HSA, mouse mPD1-HSA (SEQ ID NO: 57) or HSA (purchased from Sigma) were coated on plates at 200 ng/well overnight at 4° C. and blocked with 5% skim milk at room temperature for 1 hour. Purified histidine-tagged anti-PD-1 single-domain antibody was diluted to 1 μg/mL and incubated at 37° C. for 1 hour with 100 μL per well. After washing with PBST 3 times, a mouse anti-his tag antibody (R&D Systems, Inc) diluted 1:5000 was added at 100 μl/well and incubated at room temperature for 1 hour. After washing with PBST, HRP-Goat anti-mouse IgG antibody (Thermo Scientific) diluted 1:10000 was added at 100 μl/well and incubated at room temperature for 1 hour. After washing with PBST, TMB color developing solution (Beijing ComWin Biotech Co., Ltd.) was added for color development and OD value was measured at 450 nm.

[3] = molecular target: T2, HSA (purchased from Sigma) (human, UniProt P02768 25-609); experiment: ELISA, HSA coated 200 ng/well, VHH 1 µg/mL, anti-his detection
T2 construct: Control coat for the HSA part of hPD1-HSA; also called human serum albumin
Method: as §1

[4] = molecular target: T3, Monkey RhPD1-HSA fusion protein (monkey); experiment: ELISA, RhPD1-HSA coated 200 ng/well, VHH 1 µg/mL, anti-his detection
T3 construct: also called monkey PD-1
Method: as §1, with “Monkey RhPD1-HSA fusion protein” for “Human hPD1-HSA, mouse mPD1-HSA”, “No. 30) was” for “NO: 57) or HSA (purchased from Sigma) were”, “anti-PD1” for “anti-PD-1”, “solution” for “solution (Beijing ComWin Biotech Co., Ltd.)”

[5] = molecular target: T4, mouse mPD1-HSA fusion protein (mouse); experiment: ELISA, mPD1-HSA coated 200 ng/well, anti-his detection
T4 construct: also called mouse PD-1
Method: as §1

B1: anti-PD1 single-domain antibody clone 1D3, displayed on recombinant phage (VHH, not shown: large carriers)
VHH: QVQLVESGGGLVQPGGSLNLSCVASGSVFIIDVMAWYRQAPGKQRELVAQIINGGATYYADSVKGRFTISRDDTKTTLYLQMNSLKPDDTAVYYCSAEKFNPYRDSTHFWGQGTQVTVSS
notes: Tested as phage supernatant in the screening ELISAs of Embodiment 2.2
B1: binds [1].

B2: anti-PD-1 single-domain antibody clone 1D3, histidine-tagged, from E. coli (VHH)
VHH: B1 VHH
notes: Alpaca VHH expressed in E. coli Rosetta (DE3) from pET32a+, purified on a Ni column; not shown: C-terminal histidine tag
B2 gave an OD450 nm [2] of 2.1 OD450 nm, an OD450 nm [3] of 0.029 OD450 nm and an OD450 nm [4] of 2.1 OD450 nm. B2: no binding (tested: 1 µg/mL) [5].

B3: anti-PD1 single-domain antibody clone 1H1, displayed on recombinant phage (VHH, not shown: large carriers)
VHH: B1 VHH with T57S, D73N, Y79F, D88A, S96N, H108N
notes: as for B1
B3: binds [1].

B4: anti-PD1 single-domain antibody clone 2C4, displayed on recombinant phage (VHH, not shown: large carriers)
VHH: B1 VHH with Q13R, N19R, V23A, N53S, G55D, A56H, T57A, H108Y
notes: as for B1
B4: binds [1].

B5: anti-PD-1 single-domain antibody clone 2C4, histidine-tagged, from E. coli (VHH)
VHH: B1 VHH with Q13R, N19R, V23A, N53S, G55D, A56H, T57A, H108Y
notes: as for B2
Binder B5 has an OD450 nm [2] of 2.14 OD450 nm, an OD450 nm [3] of 0.022 OD450 nm and an OD450 nm [4] of 2.03 OD450 nm. B5: no binding (tested: 1 µg/mL) [5].

B6: anti-PD-1 single-domain antibody clone 1H1, histidine-tagged, from E. coli (VHH)
VHH: B1 VHH with T57S, D73N, Y79F, D88A, S96N, H108N
notes: as for B2
B6 gave an OD450 nm [2] of 2.17 OD450 nm, an OD450 nm [3] of 0.031 OD450 nm and an OD450 nm [4] of 2.02 OD450 nm. B6: no binding (tested: 1 µg/mL) [5].

B7: anti-PD1 single-domain antibody clone 1A9, displayed on recombinant phage (VHH, not shown: large carriers)
VHH: B1 VHH with S27N, Y79N, S120A
notes: as for B1
B7: binds [1].

B8: anti-PD-1 single-domain antibody clone 1A4, histidine-tagged, from E. coli (VHH)
VHH: B1 VHH with S27N, G55D, T57K, A60V, D73N, V92I, H108N
notes: as for B2
Work on B8 yielded an OD450 nm [2] of 2.13 OD450 nm, an OD450 nm [3] of 0.021 OD450 nm and an OD450 nm [4] of 2 OD450 nm. B8: no binding (tested: 1 µg/mL) [5].

B9: anti-PD-1 single-domain antibody clone 2D9, histidine-tagged, from E. coli (VHH)
VHH: B1 VHH with N19R, V23A, G55D, T57K, D73N, K99Q, H108Y
notes: as for B2
B9 showed an OD450 nm [2] of 2.11 OD450 nm, an OD450 nm [3] of 0.019 OD450 nm and an OD450 nm [4] of 2.1 OD450 nm. B9: no binding (tested: 1 µg/mL) [5].

B10: anti-PD-1 single-domain antibody clone 1A9, histidine-tagged, from E. coli (VHH)
VHH: B1 VHH with S27N, Y79N, S120A
notes: as for B2
For B10, the OD450 nm [2] was 2.12 OD450 nm, the OD450 nm [3] was 0.035 OD450 nm and the OD450 nm [4] was 2.02 OD450 nm. B10: no binding (tested: 1 µg/mL) [5].

B11: anti-PD1 single-domain antibody clone 2D9, displayed on recombinant phage (VHH, not shown: large carriers)
VHH: B1 VHH with N19R, V23A, G55D, T57K, D73N, K99Q, H108Y
notes: as for B1
B11: binds [1].

B12: anti-PD1 single-domain antibody clone 1A4, displayed on recombinant phage (VHH, not shown: large carriers)
VHH: B1 VHH with S27N, G55D, T57K, A60V, D73N, V92I, H108N
notes: as for B1
B12: binds [1].
